Measured values from the supplement of paper PMC10567573.

B1: WDFY2 (parent)
chain: FWNFKQMWDSKKIGLRQHHCRKCG

Variants of: B1
Assay: protein stability index of a GFP-peptide fusion (GPS, HEK-293T) (PSI 1-6); higher = more stable
Details: c terminus: a fixed tail appended
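Also: lentivirally expressed fusions sorted by FACS into six bins by GFP to DsRed ratio, PSI derived from sequencing read proportions per bin multiplied by bin number.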

Protein stability index: each site, then its substitutions
H18: A 1.73, Q 1.44, W 2.18, L 1.76, T 1.56, Y 2.5, P 2.05, N 3.5, K 2.06, R 2.5, E 2.25, I 1.8, F 1.51, V 1.83, D 1.79, C 2.94
N3: W 1.65, L 1.42, Q 2.1, K 1.7, F 2.05, H 1.77, R 1.42, Y 1.91, T 1.8, V 3.37, I 1.84, A 1.22, D 2.05, C 2.08, M 1.35
H19: W 1.69, E 1.62, K 2.39, C 1.73, V 1.98, T 1.72, I 2.22, F 1.79, A 1.86, G 2.38, P 2.17, N 2.68, S 2.02, Q 1.87, L 2.02, R 2.39
M7: T 2.11, A 2.19, E 2.82, S 2.57, W 1.74, D 2.41, H 2.48, N 1.62, Y 2.34, P 2.06, I 1.92, V 1.71, C 2.09, G 1.68, L 2, R 2.33, Q 2.21
G24: W 1.68, P 2.03, L 1.43, S 2.39, Q 1.95, R 2.3, I 1.51, M 2.38, D 2.09, V 3.27, K 1.98, Y 2.73, A 1.58
L15: E 2.48, K 2.32, H 1.71, Y 1.93, V 2.34, N 2.11, F 1.81, W 1.42, M 1.97, T 2.01, S 2.25, G 2.14, P 2.68, Q 1.95, I 1.92, A 2.01
D9: E 2.3, Q 1.84, F 1.54, Y 2.95, C 1.2, V 3.81, W 1.81, N 1.81, G 1.77, S 1.28, H 2.63, T 1
Q6: T 1.82, A 1.56, C 2.34, R 1.79, N 2.27, Y 1.6, I 1.68, H 2.27, V 1.51, W 1.28, E 1.89, P 2.04, S 1.85
F1: T 2.14, S 2, R 2.01, Q 2.11, N 2.32, L 1.44, G 2.32, M 1.52, Y 1.52, E 3.02, A 2.86, I 2.08, P 2.99, D 2.59, V 2.86
Q17: D 1.9, W 1.82, C 1.61, H 2.18, E 1.53, V 2.13, M 1.91, R 2, T 1.2, L 1.99, K 1.38, I 2.84, F 1.35
R16: M 1.94, S 2.15, K 1.53, D 2.06, A 1.97, V 2.1, G 1.54, T 1.67, C 1.59, Q 2.66, E 2.92, N 1.84
R21: M 2.21, H 2.66, K 2.01, P 1.53, D 2.04, L 1.1, Y 1.58, E 2.02, A 2.34
